In article PMC5640987 (Nature, 2017):

Assays:
[1] = biological target: the molecule itself; test: cryo-EM structure
[2] = biological target: Tor1 (budding yeast (endogenous), UniProt P35169 1-2470); test: cryo-EM structure
Sequence of Tor1 (P35169 whole entry): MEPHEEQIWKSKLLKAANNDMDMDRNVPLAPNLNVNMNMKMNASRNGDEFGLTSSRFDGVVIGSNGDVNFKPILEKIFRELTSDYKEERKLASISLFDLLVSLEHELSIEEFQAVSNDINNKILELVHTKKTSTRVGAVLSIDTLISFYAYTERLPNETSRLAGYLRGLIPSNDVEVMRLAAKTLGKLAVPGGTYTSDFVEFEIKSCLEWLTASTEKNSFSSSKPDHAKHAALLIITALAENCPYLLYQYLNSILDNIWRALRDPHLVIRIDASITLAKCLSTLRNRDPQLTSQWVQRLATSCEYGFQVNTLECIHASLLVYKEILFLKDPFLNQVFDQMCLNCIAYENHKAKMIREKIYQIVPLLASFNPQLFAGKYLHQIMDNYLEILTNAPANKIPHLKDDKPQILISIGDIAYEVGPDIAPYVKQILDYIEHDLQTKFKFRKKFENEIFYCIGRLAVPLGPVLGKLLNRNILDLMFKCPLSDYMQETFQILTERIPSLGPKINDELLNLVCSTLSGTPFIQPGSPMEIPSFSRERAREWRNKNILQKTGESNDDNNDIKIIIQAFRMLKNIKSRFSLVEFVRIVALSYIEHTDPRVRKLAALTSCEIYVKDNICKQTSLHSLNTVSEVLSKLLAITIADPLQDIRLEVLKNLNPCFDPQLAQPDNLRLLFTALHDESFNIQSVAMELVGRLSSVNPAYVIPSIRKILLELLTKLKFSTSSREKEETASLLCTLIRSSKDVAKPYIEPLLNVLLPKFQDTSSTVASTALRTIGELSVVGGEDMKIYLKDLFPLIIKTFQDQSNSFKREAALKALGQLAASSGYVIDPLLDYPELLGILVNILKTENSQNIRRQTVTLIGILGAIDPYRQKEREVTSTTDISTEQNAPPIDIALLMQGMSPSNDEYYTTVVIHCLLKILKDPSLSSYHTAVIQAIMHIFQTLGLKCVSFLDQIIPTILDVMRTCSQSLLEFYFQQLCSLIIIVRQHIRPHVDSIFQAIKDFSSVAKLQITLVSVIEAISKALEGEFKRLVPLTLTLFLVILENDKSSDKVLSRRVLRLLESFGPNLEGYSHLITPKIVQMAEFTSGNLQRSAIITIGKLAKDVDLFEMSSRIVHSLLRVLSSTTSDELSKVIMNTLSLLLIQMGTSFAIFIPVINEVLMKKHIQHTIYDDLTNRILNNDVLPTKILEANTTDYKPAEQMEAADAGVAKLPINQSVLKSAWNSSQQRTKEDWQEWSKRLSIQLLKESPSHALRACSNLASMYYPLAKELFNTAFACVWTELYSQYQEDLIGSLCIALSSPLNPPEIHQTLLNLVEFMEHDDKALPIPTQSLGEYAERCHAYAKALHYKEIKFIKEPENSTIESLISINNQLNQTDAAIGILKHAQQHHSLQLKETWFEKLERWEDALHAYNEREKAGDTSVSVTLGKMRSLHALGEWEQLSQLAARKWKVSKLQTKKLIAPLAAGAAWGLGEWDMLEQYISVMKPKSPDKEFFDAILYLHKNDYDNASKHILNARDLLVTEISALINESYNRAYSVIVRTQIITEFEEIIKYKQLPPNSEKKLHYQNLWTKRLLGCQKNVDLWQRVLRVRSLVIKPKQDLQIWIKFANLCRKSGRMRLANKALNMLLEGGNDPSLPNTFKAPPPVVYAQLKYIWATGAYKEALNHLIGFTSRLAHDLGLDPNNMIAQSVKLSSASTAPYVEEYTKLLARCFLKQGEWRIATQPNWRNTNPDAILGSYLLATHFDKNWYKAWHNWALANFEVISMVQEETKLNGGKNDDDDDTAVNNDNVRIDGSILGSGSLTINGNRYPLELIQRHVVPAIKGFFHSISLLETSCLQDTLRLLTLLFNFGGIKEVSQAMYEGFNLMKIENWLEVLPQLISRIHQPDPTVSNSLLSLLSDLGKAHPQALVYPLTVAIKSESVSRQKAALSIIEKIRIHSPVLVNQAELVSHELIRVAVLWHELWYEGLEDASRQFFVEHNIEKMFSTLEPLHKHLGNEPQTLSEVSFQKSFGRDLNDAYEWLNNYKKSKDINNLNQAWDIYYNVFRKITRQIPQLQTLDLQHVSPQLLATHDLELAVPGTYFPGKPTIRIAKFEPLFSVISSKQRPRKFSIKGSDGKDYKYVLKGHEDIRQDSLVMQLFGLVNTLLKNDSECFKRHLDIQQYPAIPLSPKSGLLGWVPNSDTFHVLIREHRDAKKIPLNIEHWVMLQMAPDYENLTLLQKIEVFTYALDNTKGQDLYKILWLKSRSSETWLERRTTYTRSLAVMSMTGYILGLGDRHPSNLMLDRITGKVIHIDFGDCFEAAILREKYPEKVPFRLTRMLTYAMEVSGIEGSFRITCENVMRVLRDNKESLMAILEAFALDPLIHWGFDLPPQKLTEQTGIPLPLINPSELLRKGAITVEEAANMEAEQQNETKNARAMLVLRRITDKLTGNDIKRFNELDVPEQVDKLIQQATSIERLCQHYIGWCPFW

B1: Kog1 in the purified TORC1 helix (natural protein)
chain: MPEIYGPQPLKPLNTVMRHGFEEQYQSDQLLQSLANDFIFYFDDKRHKTNGNPIPEEDKQRDVNRYYQPITDWKIMKDRQKTVSAALLLCLNLGVDPPDVMKTHPCARVEAWVDPLNFQDSKKAIEQIGKNLQAQYETLSLRTRYKQSLDPCVEDVKRFCNSLRRTSKEDRILFHYNGHGVPKPTKSGEIWVFNRGYTQYIPVSLYDLQTWLGAPCIFVYDCNSAENILINFQKFVQKRIKDDEEGNHDVAAPSPTSAYQDCFQLASCTSDELLLMSPELPADLFSCCLTCPIEISIRIFLMQSPLKDSKYKIFFENSTSNQPFGDSKNSFKSKIPNVNIPGMLSDRRTPLGELNWIFTAITDTIAWTSLPRPLFKKLFRHDLMIAALFRNFLLAKRIMPWYNCHPVSDPELPDSITTHPMWKSWDLAMDEVLTKIVIDLKNAPPATALESQMILQQQETLQNGGSSKSNAQDTKAGSIQTQSRFAVANLSTMSLVNNPALQSRKSISLQSSQQQLQQQQQQQQQFTGFFEQNLTAFELWLKYASNVRHPPEQLPIVLQVLLSQVHRIRALVLLSRFLDLGPWAVYLSLSIGIFPYVLKLLQSPAPELKPILVFIWARIMSIDYKNTQSELIKEKGYMYFVTVLVPDWGVNGMSATNGSAMINSGNPLTMTASQNINGPSSRYYERQQGNRTSNLGHNNLPFYHSNDTTDEQKAMAVFVLASFVRNFPLGQKNCFSLELVNKLCFYIDNSEIPLLRQWCVILLGLLFADNPLNRFVCMNTGAVEILLKSLKDPVPEVRTASIFALKHFISGFQDAEVILRLQQEFEEQYQQLHSQLQHLQNQSHLQQQQSQQQQQHLEQQQMKIEKQIRHCQVMQNQLEVIDLRKLKRQEIGNLISILPLINDGSSLVRKELVVYFSHIVSRYSNFFIVVVFNDLLEEIKLLEKSDINTRNTSDKYSVSQGSIFYTVWKSLLILAEDPFLENKELSKQVIDYILLELSAHKELGGPFAVMEKFLLKRSSKAHQTGKFGFNSSQVQFVKSSLRSFSPNERVDNNAFKKEQQQHDPKISHPMRTSLAKLFQSLGFSESNSDSDTQSSNTSMKSHTSKKGPSGLYLLNGNNNIYPTAETPRFRKHTEPLQLPLNSSFLDYSREYFQEPQMKKQEADEPGSVEYNARLWRRNRNETIIQETQGEKKLSIYGNWSKKLISLNNKSQPKLMKFAQFEDQLITADDRSTITVFDWEKGKTLSKFSNGTPFGTKVTDLKLINEDDSALLLTGSSDGVIKIYRDYQDVDTFKIVSAWRGLTDMLLTPRSTGLLTEWLQIRGSLLTTGDVKVIRVWDAHTETVEVDIPAKTSSLITSLTADQLAGNIFVAGFADGSLRVYDRRLDPRDSMIRRWRAGNDKQGVWINNVHLQRGGYRELVSGATNGVVELWDIRSEDPVESFVDQNVTSQYGSQQKPTTMTCMQVHEHAPIIATGTKQIKIWTTSGDLLNSFKNSHNNGVTSTLAATGIPKSLSYSSTSDAFLSSMAFHPHRMMIAATNSHDSIVNIYKCEDERIDYF
binding result [1]: binds
binding result [2]: binds
